Laboratory results published in the nanobody polyreactivity screen of Harvey et al. (2022).

Assay: yeast display, Sf9 membrane polyspecificity reagent, FACS + sequencing; frameworks hold sequencing errors
Method in brief: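 Synthetic nanobody libraries on Saccharomyces cerevisiae BJ5465 were galactose-induced for 36–48 hours, stained 1 hour at 4 °C with 10% biotinylated, detergent-solubilized Sf9 membrane reagent and enriched on streptavidin microbeads. FACS then separated cells into low and high (top ~1%) gates by anti-HA (expression) and streptavidin (reagent binding) fluorescence. Genes were colony-PCR amplified, MiSeq 2 × 250 sequenced and CDR-length filtered. A clone's polyreactivity label is that of its gate of origin.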

Sequence | polyreactivity (PSR sort gate)
QVQLVESWGALVQAGGSLRLSCAASGSTFGSNAMGWYRQAPGKERELVAAITYSGGRTYYADSVKGRFTISRDNAKNTVYLQMNSLTPEDTAVYYCAATFGFFYYQYDYWGQGTQVTVSS | low polyreactivity
QVQLVESGGGLVQAGGSLRLSCAASGLTFAFYAMGWYRQAPGKEMELVARIRTSAITYYADSVKGSFTISRDNAKNTVYLQMNSLKPEDTAVYYCAAEEGRVFSGGYDYWGQGTQVTVSS | high polyreactivity
QVQLVESGGGLDQAGGSRRLSCAASGSTFSSYAMGWYSQAPGQARELVAVITASGGSTYYADSVKGRFTISRDNPKNTVYLQMNSLKPDDTAVYYCAADPRSGDQYGKGDYWGQGTQVTGSS | low polyreactivity
QVHLVESGGGLFQAGGSLRLRCAASGRIFRYNTMGWYRQAPGKERELVAAINSSGGRTYYADSVKGRFTISRDNAKNTVYLQMNSLKPDDTAVYYCAAVIYVLSGPGYDYWGQGTQVTVSE | high polyreactivity
QVQLVESGGGLVQAGGSLRLSCAASGSIFPRYAMGWYRQAPGKERELVAAITGSGSSTYYADSVKGRFTISRDNAKNTVYLQMNSLKPEDTAVYYCAARKARPPFPHPFDYYWGQGTQVTVSS | low polyreactivity
QDQLVESGGGLVQAGGSLRLSCAASGRIFGYYTAMGWYRQTPAKEREMVASITKSGGSTYYSDSVKGRFTITRDNAKNTVYLQKNCLKPEDTAVYYCAAAFNRYGTTSYWYRHYYWGQGTQVTVSS | high polyreactivity
QVQLVESGGGLVQAGGSLRLSCAASGIIFGYYAMGWYRQAPGKERELVATINWDGGSTYYADSVKGRFTISRDNAKNTVYLQMNSLKPEDTAVYYCAAAKPVQYRIAQAHVGYWGQGTQVTVSS | low polyreactivity
QVQLVESGGGLVQAGGSLRLRCAASGRTFGPYTMGWYRQAPGKEREFVAAINSSGSRTYYADSVKGRFTISRDNAKNTVYLQMNSLKPEDTAVYYCAAEAKWYYSWSYPYEGDYWGQGTQVTVSS | low polyreactivity
QVQLVESGGGLVQAGGSLRLSCAASGRIFPVYAMGWYRQAPGKERELVAAITSGVSTNYADSVKGRFTISRDNAKYTVYLQMNSLKPEDTAVYYCNKDYTTYPYYEYGYWGQGTQVTVSS | low polyreactivity
QVQLVESGGGLVQAGGSLRISCAASGSIFVHYSMGWYRQAPGKEREFVAAISRGGGTTYYADSVKGRFTISRDNAKNTVYLQMNSLKPEDTAVYYCSARPSTDEGHRQSGLDYWGQGTQVTVSS | high polyreactivity
QVQLVESGGGLVQAGGSLRLSCAASGRIFGFNAMGWYRQATGKERELVAAISWRGGSTYYADSVKGRFTISRDNAKNTVYLQMNSLKPEDTAVYYCAAGRYLRSGFGEGYYWGQGTQVTVSS | high polyreactivity
QVQLVESGGGLVQAGGSLRLSCAASGRTFQLNAMGWYRQAPGKEREFVATISTGGGGTFYADSVKGRFTISRDNAKNTVYLQMNSLKPEDTAVYYCNAGGETYIFRDLRHDYWGQGTQVTVSS | low polyreactivity
QVQLVESGGGLLQAGGSLRLSCAASGRIFIANAMGWNRQAPRKERDLVAAITSDGGTNYADSVKGRFTISRDNAKITVYLQLISLKPEDTAVYYCAATYQIGYYYVWEYDYWGQGTQLTVSS | low polyreactivity
QVQLVESGGGLVQAGGSLRLSFAASGRIFVRYSMGWYRQAPGKERELVAAISSSGSSTYYADSVKGRFTISRDNAQNTFYLKMNCLKPEDTAVYYCAAASVRYPRYEYWGQGTQVTVSS | high polyreactivity
QVQLVESGGGLVQAGGSLRLSCAASGRTFGQYAMGWYRQAPGKEREFVAGITWSGGSTSYADSVKGRFTISRDNAKNTVYLQMNSLKPEDTAVYYCIAVYWKPSLEYGYWGQGTQVTVSS | high polyreactivity
QVQLGESGGGLVQAGGSLRLSCAASGRIFWYNAMGWYRQAPGKERELVAGIRSGGSTNYADSVKGRFTISRDNAKNTVYLQMNSLKPDDTAVYYCNVDHEARKLHVSIKQLSDHWGQGTQVTVSS | low polyreactivity
QVQLVESGGGLVQAGGSLRLSCAASGITFSKNAMGWYRKEPGKEKELVAAISRGGSTYYADSEKGRFTISRDNAKNTVYLQMNSLKPEDTAVYYCAARSRYYYRRPQISYDYWGQGTQVTVSS | low polyreactivity
